Patent publication US20240207432A1 (BIOSION, published 2024)
Like-named read-outs stand apart in the source and are kept apart here.

T1: human TROP2-his protein (human, UniProt P09758 27-274)
T1 construct: Biotin-labelled in the ELISAs, unlabelled analyte in Biacore; also called biotin-labeled human TROP2-his protein; biotin human Trop2-his
T1 sequence: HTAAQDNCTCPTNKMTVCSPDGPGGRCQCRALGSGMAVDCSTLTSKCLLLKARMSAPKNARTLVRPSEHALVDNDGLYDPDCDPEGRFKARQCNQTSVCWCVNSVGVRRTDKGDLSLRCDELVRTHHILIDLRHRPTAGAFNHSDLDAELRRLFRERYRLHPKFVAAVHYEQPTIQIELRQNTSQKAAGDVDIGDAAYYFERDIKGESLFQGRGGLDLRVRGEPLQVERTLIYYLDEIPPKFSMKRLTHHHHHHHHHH

T2: full length human TROP2 on 293F-TROP2 cells (human, UniProt P09758 27-323)
T2 construct: also called 293F-TROP2 cells (clone ID #3A8); cell surface TROP2
T2 sequence: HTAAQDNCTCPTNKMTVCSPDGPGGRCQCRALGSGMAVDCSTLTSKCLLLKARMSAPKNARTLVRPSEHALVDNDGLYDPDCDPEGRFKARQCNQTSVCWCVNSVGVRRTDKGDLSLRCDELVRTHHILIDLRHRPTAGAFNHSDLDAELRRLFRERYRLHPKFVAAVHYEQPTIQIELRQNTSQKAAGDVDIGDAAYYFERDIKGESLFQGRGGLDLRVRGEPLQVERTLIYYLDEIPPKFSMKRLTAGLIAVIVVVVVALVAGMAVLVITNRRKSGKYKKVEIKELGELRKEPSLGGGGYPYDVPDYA


Legend:
human TROP2-his protein [1] = biological target: T1, human TROP2-his protein; assay: capture ELISA, antibody captured on anti-mouse IgG Fc coat, biotin human TROP2-his in solution, OD(450-630)
Description: (§1) Plates were washed once with wash buffer (PBS+0.05% v/v Tween-20, PBST) and then blocked with 200 μl/well blocking buffer (5% w/v non-fatty milk in PBST) for 2 hours at 37° C. […] Plates containing captured anti-TROP2 antibodies were incubated with biotin-labeled human TROP2-his protein (prepared in house, SEQ ID NO: 67, 56.7 ng/mL in 2.5% w/v non-fatty milk in PBST, 100 μl/well) for 40 minutes at 37° C., washed 4 times, and incubated with streptavidin conjugated HRP (1:10000 dilution in PBST, Jackson Immuno Research, Cat #016-030-084, 100 μl/well) for 40 minutes at 37° C. After a final wash, plates were incubated with 100 μl/well ELISA substrate TMB (Innoreagents, Cat #TMB-S-002) at room temperature. The reaction was stopped in 3-10 minutes at room temperature with 50 μl/well 1M H₂SO₄, and the absorbance of each well was read on a microplate reader using dual wavelength mode with 450 nm for TMB and 630 nm as the reference wavelength. The OD (450-630) values were plotted against antibody concentration. Data was analyzed using Graphpad Prism software and EC₅₀ values were reported.

[2] = biological target: T2, full length human TROP2 on 293F-TROP2 …; assay: FACS on 293F-TROP2 cells, MFI
human TROP2-his protein [3] = biological target: T1, human TROP2-his protein; assay: capture ELISA, antibody captured on anti-human IgG Fc coat, biotin human TROP2-his in solution, OD(450-630)
Description: as §1
For the Capture ELISA, AffiniPure F(ab′)₂ Fragment Goat Anti-Human IgG, Fcγ fragment specific (Jackson Immunoresearch, Cat #109-006-008) was used instead of AffiniPure Goat Anti-Mouse IgG, Fcγ fragment specific, 100 μl/well.

[4] = biological target: T2, full length human TROP2 on 293F-TROP2 …; assay: FACS on 293F-TROP2 cells, MFI; remark: listed apart in the source
Description: The 293F-TROP2 cells were harvested from cell culture flasks, washed twice and re-suspended in phosphate buffered saline (PBS) containing 2% v/v Fetal Bovine Serum (FACS buffer). […] Following an incubation of 40 minutes at 4° C. in dark, cells were washed twice and re-suspended in FACS buffer. Fluorescence was measured using a Becton Dickinson FACS Canto II-HTS equipment, and the MFI (mean fluorescence intensity) was plotted against antibody concentration. Data was analyzed using Graphpad Prism software and EC₅₀ values were reported.

human TROP2-his protein [5] = biological target: T1, human TROP2-his protein; assay: competitive ELISA: mouse A1H3C5H8E12 coated at 2 ug/mL, antibody premixed with biotin human TROP2-his; blocked: binding of TROP2-his to coated A1H3C5H8E12
Description: The mouse anti-TROP2 antibodies were tested for epitope binding in a competitive ELISA assay. […] ELISA plates were washed once with wash buffer (PBS+0.05% v/v Tween-20, PBST) and then blocked with 200 μl blocking buffer (5% w/v non-fatty milk in PBST) for 2 hours at 37° C. While blocking, the anti-TROP2 antibodies or controls were diluted with biotin labeled human TROP2-his protein (SEQ ID NO: 67, 34 ng/mL in 2.5% wA non-fatty milk in PBST), starting at 80 nM with a 5-fold serial dilution, and incubated at room temperature for 40 minutes. After plate washing for 4 times, the antibody/TROP2-his protein mixtures were added to the antibody coated plates, 100 μl per well. After incubation at 37° C. for 40 minutes, plates were washed 4 times again using wash buffer. Then the plates were added and incubated with 100 μl Peroxidase Streptavidin (1:10000 dilution in PBST buffer. Jackson Immunoresearch, Cat #016-030-084) for 40 minutes at 37° C. Plates were washed again using wash buffer. Finally, TMB was added and the reaction was stopped using 1M H₂SO₄. The absorbance of each well was read on a microplate reader using dual wavelength mode with 450 nm for TMB and 630 nm as the reference wavelength, and the OD (450-630) values were plotted against antibody concentration. Data was analyzed using Graphpad Prism software and IC₅₀ values were reported.

human TROP2-his protein [6] = biological target: T1, human TROP2-his protein; assay: competitive ELISA: BM1 coated, antibody premixed with biotin human TROP2-his; blocked: binding of TROP2-his to coated BM1; partial only: OD falls from about 1.9 to a plateau of about 1.3

Binder | EC50 (human TROP2-his protein [1]) | EC50 [2] | EC50 (human TROP2-his protein [3]) | EC50 [4] | IC50 (human TROP2-his protein [5]) | IC50 (human TROP2-his protein [6])
mouse antibody C1B3B12D2 (antibody, V domains shown, Mouse monoclonal IgG purified from hybridoma supernatant) VH: QVQLQQSGPELVRPGTSVKMSCKAAGYTFTKFWIGWVKQRPGHGLEWIGNIYPGGAYINYNENFKGKATLTADTFSSTAYMQLNSLTSADSAIYYCAREGSSGYWGQGTTLTVSS VL: DIVMTQSPSSLTVTAGEKVTLSCKCSQSLLNSGTQENYLTWYQQKPGQPPKMLIYWASIREPGVPDRFTGSGSGTDFTLTINNVQAEDLAVYYCQHDYSYPFTFGSGTKLEIK | 0.107 nM | 0.636 nM |  |  |  | 
benchmark (in house prepared sacituzumab) (antibody, human IgG1, kappa, V domains shown, also called BM; BM1) VH: SVQLQQSGSELKKPGASVKVSCKASGYTFTNYGMNWVKQAPGQGLKWMGWINTYTGEPTYTDDFKGRFAFSLDTSVSTAYLQISSLKADDTAVYFCARGGFGSSYWYFDVWGQGSLVTVSS VL: DIQLTQSPSSLSASVGDRVSITCKASQDVSIAVAWYQQKPGKAPKLLIYSASYRYTGVPDRFSGSGSGTDFTLTISSLQPEDFAVYYCQQHYITPLTFGAGTKVEIKR |  | 1.14 nM | 0.316 nM | 1.32 nM |  | 
mouse antibody A1E11A12D1 (antibody, V domains shown, Mouse monoclonal IgG purified from hybridoma supernatant) VH: QVQLQQSGAELARPGASVKLSCMASGYTFTTYGISWVRQRTGQGLEWIGQIYPGSDYSYCDEDFKGKATLTADKSSSTAYMQLSSLTSEDSAVYFCARASYFDYWGQGTTLTVSS VL: DILLTQSPAILSVSPGERVSFSCRASQTIGTAIHWYQQRANGSPRLLIKYASESISGIPSRFSGSGSGTDFALSINTVESEDFAYYYCQQSNNWPFTFGGGTKLEIR | 0.13 nM |  |  |  | 0.933 nM | 
mouse antibody A1H3C5H8E12 (antibody, V domains shown, Mouse monoclonal IgG purified from hybridoma supernatant) VH: QVQLQQSGAELVRPGTSVKMSCKAAGYTFTNYWIDWVKQRPGHGLEWIGNIFPGGFYTNYNEKFKGKATLTADTSSSTAYMQLSSLTSEDSAIYYCARGGVFDYWGQGTTLTVSS VL: DILLTQSPAILSVSPGERVSFSCRASQSIGTSIHWYQQRTNGSPRLLIKYASESISGIPSRFSGSGSGTDFTLSINSVESEDIADYYCQQSNSWPYTFGGGTKLEIK | 0.303 nM |  |  |  |  | 
huA1E4F7D4-V16 (antibody, human IgG1, kappa, V domains shown, Positions of the X residues are given in the claims; also called humanized antibody huA1E4F7D4-V16) VH: QVQLVQSGAEVKKPGASVKVSCKASGYSFTTHWIHWVRQAPGQGLEWIGTIFPSNAYAVYNQKFRDRATMTADTSISTAYIELSRLRSDDTAVYYCARASYFDYWGQGTTVTVSS VL: EIVLTQSPATLSLSPGERATLSCRASQNIGTSIHWFQQKPGGAPRLLIKYASESISGIPSRFSGSGSGTDFTLTISSLEPEDFAVYYCQHSHSWPFTFGQGTKLEIKR |  |  | 0.054 nM | 0.596 nM |  | 0.353 nM
mouse antibody A1E4F7D4 (antibody, V domains shown, Mouse monoclonal IgG purified from hybridoma supernatant; also called Mouse A1E4F7D4) VH: QVQLQQSGAELAKPGTSVKMSCEASGYSFTTHWIHWMKQRPGQGLEWIGTIFPSNAYAVYNQKFRDRAIMTADRSSTTAYIQLTGLTSEDSAVYYCARASYFDYWGQGTTLTVSS VL: DILLTQSPATLSVSPGERVTFSCRASQNIGTSIHWFQQRTTGSPRLLIKYASESISGIPSRFSGSGSGTDFTLHINSVESEDIAHYYCQHSHSWPFTFGSGTKLEIQ | 0.0891 nM | 1.01 nM |  | 1.48 nM | 0.621 nM | 0.702 nM
